In patent US11149086B2, “KV1.3 binding immunoglobulins” (Ablynx N.V., priority 2014, dated 2021):
Where two headings read alike, the source gives them in different places.

Tests used:
human Kv1.3 [1] = molecular target: T1, human Kv1.3 (Homo sapiens, UniProt P22001); test: IonWorks Quattro automated perforated patch clamp, Kv1.3-expressing CHL cells; type: cell-based; details: monovalent Nanobodies, sustained current P1
T1 construct: cell lines stably expressing the full length human Kv1.3 channel
T1 sequence (P22001 whole entry): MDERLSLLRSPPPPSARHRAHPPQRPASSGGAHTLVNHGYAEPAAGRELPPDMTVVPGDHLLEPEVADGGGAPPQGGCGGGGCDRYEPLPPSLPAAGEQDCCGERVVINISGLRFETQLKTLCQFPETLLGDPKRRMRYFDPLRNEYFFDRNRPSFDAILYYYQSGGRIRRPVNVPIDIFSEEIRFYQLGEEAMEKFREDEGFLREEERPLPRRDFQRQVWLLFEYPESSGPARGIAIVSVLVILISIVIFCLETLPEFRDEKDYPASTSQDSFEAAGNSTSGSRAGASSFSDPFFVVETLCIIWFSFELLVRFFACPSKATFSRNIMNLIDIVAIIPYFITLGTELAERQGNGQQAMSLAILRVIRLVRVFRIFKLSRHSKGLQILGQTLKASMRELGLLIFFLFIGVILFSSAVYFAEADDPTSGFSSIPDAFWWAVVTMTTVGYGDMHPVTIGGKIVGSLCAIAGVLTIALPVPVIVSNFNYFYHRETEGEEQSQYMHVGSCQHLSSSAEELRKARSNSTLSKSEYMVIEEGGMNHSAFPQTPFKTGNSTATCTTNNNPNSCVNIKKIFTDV
Source text: Selected Nanobodies were electrophysiologically characterized on human Kv1.3 on the IonWorks automated perforated-Patch Clamp using Kv1.3-expressing Chinese Hamster Lung (CHL) cells. The procedure for evaluating the modulatory effect of the purified Nanobodies on human Kv1.3 via electrophysiological recordings is given below.
IonWorks Quattro (Molecular Devices) is a second-generation screening instrument that provides membrane voltage control and provides a direct electrophysiological assay for screening and characterization of compounds. It is an automated, high-throughput planar perforated patch clamp that uses a 384-well PatchPlate™ substrate.
Extracellular solution contained (in mM): 138 NaCl, 2.7 KCl, 0.9 CaCl2, 0.5 MgCl2, 8 Na2HPO4, and 1.5 KH2PO4 (pH 7.3 with NaOH, and 285-290 mOsmolar). The intracellular solution contained (in mM): 100 K-gluconate, 40 KCl, 3.2 EGTA, 5 HEPES and 3.2 MgCl2 (pH 7.3 with KOH, and 300-315 mOsmolar). These solutions were freshly made, stocked for no longer than a month at 4° C. and filtered prior to use. The selected Nanobodies were directly diluted in extracellular solution to obtain a 3 μM sample solution. […]
The basic principles of IonWorks automated patch clamp electrophysiology are described by Schroeder et al. (J Biomol Screen 8(1):50-64, 2003). […] In PPC mode, an ensemble average of the current from up to 64 cells per well was recorded. […]

human Kv1.3 [2] = molecular target: T1, human Kv1.3; test: IonFlux automated patch clamp, Kv1.3-expressing HEK293H cells; type: cell-based; details: monovalent Nanobodies, concentration at which Kv1.3 current is 50%
Source text: Periplasmic extracts were electrophysiologically screened for inhibitory effects on the voltage-gated potassium channel Kv1.3 on the IonFlux™ automated Patch Clamp using Kv1.3-expressing HEK293H cells. The complete procedure for evaluating the modulatory effect of periplasmic extracts on human Kv1.3 via electrophysiological recordings is given below.
The IonFlux™ (Molecular Devices) is an automated patch clamp system with integrated Well Plate Microfluidic™ Technology, temperature control and continuous perfusion and voltage clamp. The IonFlux™ 16 has sixteen parallel amplifiers and uses 96-well IonFlux plates conform to the Society for Biomolecular Sciences. This system allows both population and single cell patch clamp.
Extracellular solution contained (in mM): 132 NaCl, 5.4 KCl, 1.8 CaCl2, 0.8 MgCl2, 10 HEPES, 5 glucose (pH 7.2 with NaOH, and 285-290 mOsmolar). Intracellular solution contained (in mM): 40 KF, 100 KCl, 2 MgCl2, 10 HEPES, 5 EGTA (pH 7.45 with CsOH, and 300-315 mOsmolar). These solutions were freshly made, stocked for no longer than a month at 4° C. and filtered prior to use. […]
HEK293H cells stably expressing the human Kv1.3 channel were generated in house. […] Cells were counted (Casy T T, Roche), suspended at 1 million cells/ml, transferred to a new 50 ml conical CELLSTAR® tube and gently shaken at RT for approximately 20 min. […]

CCR7−CD45RA− T cells = type: cell-based, human; details: for IC50: monovalent Nanobodies
Source text: The purified anti-Kv1.3 Nanobodies were characterized in a T Cell-activation assay. Human T Cells were first collected from Buffy Coat blood (from healthy volunteers, Bloodbank Gent) using RosetteSep (StemCell Technologies, #15061) followed by an enrichment on Ficoll-Paque™ PLUS (GE Healthcare #17-1440-03). CCR7−CD45RA− T cells were isolated through negative selection using biotinylated antibodies against CD45RA (BD Bioscience #624008) and CCR7 (BD Bioscence #624009) in addition to the Dynabeads Biotin Binder (Invitrogen #110.47). The purity of the population was afterwards checked with anti-CD3 (eBioscience #12-0037-73); anti-CD8 (BD Bioscience #345775); anti-CD4 (BD Bioscience #345771); anti-CD45RO (BD Bioscience #555493); anti-CD45RA (BD Bioscience #550855); anti-rat IgG (Jackson ImmunoResearch Laboratories #112-116-143); anti-CD19 (BD Bioscience #555413) and anti-Human CCR7 (R&D Systems #MAB197) labeled antibodies in flow cytometric assay.
Isolated CCR7^−CD45RA^− T Cells were then stimulated on anti-CD3 (eBioscience 16-0037-85; 540 ng/ml) coated 96-well plates at a concentration of 200 000 cells/well in absence or presence of dilution series of anti-Kv1.3 antibodies and ShK positive control (Smartox, #08SHK001). After 72 h, IFN-gamma production was measured with anti-human IFNγ antibody capture in ELISA (BD Bioscence #551221) combined with biotinylated anti-human IFNγ (BD Bioscience, #554550) and streptavidin-HRP (Dakocytomation #P0397) as detection (FIG. 11A-11B).
In addition, also CD25 expression was measured in flow cytometry, using an anti-CD25 antibody (BD Pharmingen, cat 557138) (FIG. 11C-11D). […]

Molecule	IC50 (human Kv1.3 [1]) [nM]	IC50 (human Kv1.3 [2]) [nM]	inhibition of T-cell stimulation (IFNγ, CD25), in words (CCR7−CD45RA− T cells; anti-CD3 stimulation)	IC50 (CCR7−CD45RA− T cells; plate bound anti-CD3, 72 h, read-out: IC50 (in M) IFNγ read out) [nM]	IC50 (CCR7−CD45RA− T cells; plate bound anti-CD3, read-out: IC50 (in M) CD25 read out) [nM]
A0194016B04: monovalent anti-Kv1.3 Nanobody, family 12 (protein, Nanobody sequence) VHH: EVQLVESGGGLVQAGGSLRLSCSASGLLFSVNSAGWYRQAPGKQRDFVARIRSGGSTNYADSVKGRFTISRDKATNTLYLQMNNLKPEDTAVYYCSSWRTEAYEYWGRGTLVTVSS	34	84	–	–	–
A0194020A06: monovalent anti-Kv1.3 Nanobody, family 12 (protein, Nanobody sequence) VHH: EVQLVESGGGLVQAGGSLGLSCSASGLLFSRNSAGWYRQAPGKRREFVARIRMGGSINYADSVKGRFTVSRDNAKNMMYLQMNDLKPEDTAVYFCSGWREGFYEYWGQGTLVTVSS	–	13.4	clearly inhibited	30	36
